Experimental data published in article PMC2808332, “Expanding the Substantial Interactome of NEMO Using Protein Microarrays” (PLoS ONE, 2010).

Target: T1, NEMO (NF-κB essential modulator), tag-free, biotinylated (human, UniProt Q9Y6K9 1-419, biotin (in vitro biotinylation kit, biotin:NEMO molar ratio 9:1))
T1 construct: NEMO, NF-κB essential modulator, human, 48 kDa; also called biotinylated NEMO; biotin-NEMO; source: E. coli BL21(DE3), purified (glutathione sepharose), GST removed with thrombin, biotinylated in vitro
Assay: peptide or protein array; Invitrogen Protoarray v4.0, about 8,400 human proteins spotted on nitrocellulose-coated glass slides; 10 µg biotinylated tag-free NEMO in 120 µl probing buffer (PBS, 0.5 mM DTT, 5 mM MgCl2, 5% glycerol, 0.05% Triton X-100), 4°C, 1.5 h; bound NEMO detected with labelled streptavidin; hits Z-score > 3, hits of the biotin-GST control array subtracted
Settings: both partners purified

| Binder | binding result |
| --- | --- |
| Growth arrest and DNA-damage-inducible, gamma (natural protein, human, UniProt O95257 1-159, looked up, Growth arrest and DNA-damage-inducible, gamma, human; also called GADD45G; source: insect cell/baculovirus, purified, spotted (Invitrogen Protoarray v4.0)) MTLEEVRGQDTVPESTARMQGAGKALHELLLSAQRQGCLTAGVYESAKVLNVDPDNVTFCVLAAGEEDEGDIALQIHFTLIQAFCCENDIDIVRVGDVQRLAAIVGAGEEAGAPGDLHCILISNPNEDAWKDPALEKLSLFCEESRSVNDWVPSITLPE | binds |
| Centrin EF-hand protein 3 (natural protein, human, UniProt O15182 1-167, looked up, Centrin EF-hand protein 3, human; also called CETN3; source: insect cell/baculovirus, purified, spotted (Invitrogen Protoarray v4.0)) MSLALRSELVVDKTKRKKRRELSEEQKQEIKDAFELFDTDKDEAIDYHELKVAMRALGFDVKKADVLKILKDYDREATGKITFEDFNEVVTDWILERDPHEEILKAFKLFDDDDSGKISLRNLRRVARELGENMSDEELRAMIEEFDKDGDGEINQEEFIAIMTGDI | binds |
| Calbindin D28K (natural protein, human, UniProt P05937-1 1-261, looked up, also called CALB1; source: insect cell/baculovirus, purified, spotted (Invitrogen Protoarray v4.0)) MAESHLQSSLITASQFFEIWLHFDADGSGYLEGKELQNLIQELQQARKKAGLELSPEMKTFVDQYGQRDDGKIGIVELAHVLPTEENFLLLFRCQQLKSCEEFMKTWRKYDTDHSGFIETEELKNFLKDLLEKANKTVDDTKLAEYTDLMLKLFDSNNDGKLELTEMARLLPVQENFLLKFQGIKMCGKEFNKAFELYDQDGNGYIDENELDALLKDLCEKNKQDLDINNITTYKKNIMALSDGGKLYRTDLALILCAGDN | binds |
| Ring finger protein 7 (sensitive to apoptosis gene, SAG) (natural protein, human, UniProt Q9UBF6-1 1-113, looked up, Ring finger protein 7 (sensitive to apoptosis gene, SAG), human; also called RNF7; source: insect cell/baculovirus, purified, spotted (Invitrogen Protoarray v4.0)) MADVEDGEETCALASHSGSSGSKSGGDKMFSLKKWNAVAMWSWDVECDTCAICRVQVMDACLRCQAENKQEDCVVVWGECNHSFHNCCMSLWVKQNNRCPLCQQDWVVQRIGK | binds |
| Cyclic AMP phosphoprotein, 19 kDa (natural protein, human, UniProt P56211-1 1-112, looked up, Cyclic AMP phosphoprotein, 19 kDa, human; also called ARPP-19; source: insect cell/baculovirus, purified, spotted (Invitrogen Protoarray v4.0)) MSAEVPEAASAEEQKEMEDKVTSPEKAEEAKLKARYPHLGQKPGGSDFLRKRLQKGQKYFDSGDYNMAKAKMKNKQLPTAAPDKTEVTGDHIPTPQDLPQRKPSLVASKLAG | binds |
| Prefoldin 5, transcript variant 1 (natural protein, human, UniProt Q99471-1 1-154, looked up, Prefoldin 5, human; also called PFDN5; source: insect cell/baculovirus, purified, spotted (Invitrogen Protoarray v4.0)) MAQSINITELNLPQLEMLKNQLDQEVEFLSTSIAQLKVVQTKYVEAKDCLNVLNKSNEGKELLVPLTSSMYVPGKLHDVEHVLIDVGTGYYVEKTAEDAKDFFKRKIDFLTKQMEKIQPALQEKHAMKQAVMEMMSQKIQQLTALGAAQATAKA | binds |
| Centaurin, alpha 2 (natural protein, human, UniProt Q9NPF8 1-381, looked up, Centaurin, alpha 2, human; also called CENTA2; source: insect cell/baculovirus, purified, spotted (Invitrogen Protoarray v4.0)) MGDRERNKKRLLELLRAPDTGNAHCADCGAADPDWASYKLGIFICLNCCGVHRNFPDISRVKSVRLDFWDDSIVEFMIHNGNLRVKAKFEARVPAFYYIPQANDCLVLKEQWIRAKYERREFMADGETISLPGNREGFLWKRGRDNSQFLRRKFVLLAREGLLKYFTKEQGKSPKAVISIKDLNATFQTEKIGHPHGLQITYRRDGHTRNLFVYHESGKEIVDWFNALRAARLQYLKMAFPELPESELVPFLTRNYLKQGFMEKTGPKQKEPFKKRWFALDCHERRLLYYKNPLDAFEQGQVFLGNKEQGYEAYEDLPKGIRGNRWKAGLTIVTPERRFVLTCPSEKEQQEWLESLRGVLSSPLTPLNRLTASTESGRSSR | binds |
| Proteasome (prosome, macropain) subunit, alpha type, 3 (natural protein, human, UniProt P25788-1 1-255, looked up, Proteasome (prosome, macropain) subunit, alpha type, 3, human; also called PSMA3; source: insect cell/baculovirus, purified, spotted (Invitrogen Protoarray v4.0)) MSSIGTGYDLSASTFSPDGRVFQVEYAMKAVENSSTAIGIRCKDGVVFGVEKLVLSKLYEEGSNKRLFNVDRHVGMAVAGLLADARSLADIAREEASNFRSNFGYNIPLKHLADRVAMYVHAYTLYSAVRPFGCSFMLGSYSVNDGAQLYMIDPSGVSYGYWGCAIGKARQAAKTEIEKLQMKEMTCRDIVKEVAKIIYIVHDEVKDKAFELELSWVGELTNGRHEIVPKDIREEAEKYAKESLKEEDESDDDNM | binds |
| Myosin light chain 5, regulatory (natural protein, human, UniProt Q02045-1 1-173, looked up, Myosin light chain 5, regulatory, human; also called MYL5; source: insect cell/baculovirus, purified, spotted (Invitrogen Protoarray v4.0)) MASRKTKKKEGGALRAQRASSNVFSNFEQTQIQEFKEAFTLMDQNRDGFIDKEDLKDTYASLGKTNVKDDELDAMLKEASGPINFTMFLNLFGEKLSGTDAEETILNAFKMLDPDGKGKINKEYIKRLLMSQADKMTAEEVDQMFQFASIDVAGNLDYKALSYVITHGEEKEE | binds |
| Odontogenic, ameloblast associated (natural protein, human, UniProt A1E959 16-279, looked up, Odontogenic, ameloblast associated, human; also called ODAM; source: insect cell/baculovirus, purified, spotted (Invitrogen Protoarray v4.0)) APLIPQRLMSASNSNELLLNLNNGQLLPLQLQGPLNSWIPPFSGILQQQQQAQIPGLSQFSLSALDQFAGLLPNQIPLTGEASFAQGAQAGQVDPLQLQTPPQTQPGPSHVMPYVFSFKMPQEQGQMFQYYPVYMVLPWEQPQQTVPRSPQQTRQQQYEEQIPFYAQFGYIPQLAEPAISGGQQQLAFDPQLGTAPEIAVMSTGEEIPYLQKEAINFRHDSAGVFMPSTSPKPSTTNVFTSAVDQTITPELPEEKDKTDSLREP | binds |
| Chromosome 9 open reading frame 32 (natural protein, human, UniProt Q9BV86 1-223, looked up, Chromosome 9 open reading frame 32, human; also called C9ORF32; source: insect cell/baculovirus, purified, spotted (Invitrogen Protoarray v4.0)) MTSEVIEDEKQFYSKAKTYWKQIPPTVDGMLGGYGHISSIDINSSRKFLQRFLREGPNKTGTSCALDCGAGIGRITKRLLLPLFREVDMVDITEDFLVQAKTYLGEEGKRVRNYFCCGLQDFTPEPDSYDVIWIQWVIGHLTDQHLAEFLRRCKGSLRPNGIIVIKDNMAQEGVILDDVDSSVCRDLDVVRRIICSAGLSLLAEERQENLPDEIYHVYSFALR | binds |
| TBC1 domain family, member 7 (natural protein, human, UniProt Q9P0N9-1 1-293, looked up, TBC1 domain family, member 7, human; also called TBC1D7; source: insect cell/baculovirus, purified, spotted (Invitrogen Protoarray v4.0)) MTEDSQRNFRSVYYEKVGFRGVEEKKSLEILLKDDRLDTEKLCTFSQRFPLPSMYRALVWKVLLGILPPHHESHAKVMMYRKEQYLDVLHALKVVRFVSDATPQAEVYLRMYQLESGKLPRSPSFPLEPDDEVFLAIAKAMEEMVEDSVDCYWITRRFVNQLNTKYRDSLPQLPKAFEQYLNLEDGRLLTHLRMCSAAPKLPYDLWFKRCFAGCLPESSLQRVWDKVVSGSCKILVFVAVEILLTFKIKVMALNSAEKITKFLENIPQDSSDAIVSKAIDLWHKHCGTPVHSS | binds |
| Leucine zipper and CTNNBIP1 domain containing (natural protein, human, UniProt Q8WZA0-1 1-190, looked up, Leucine zipper and CTNNBIP1 domain containing, human; also called LZIC; source: insect cell/baculovirus, purified, spotted (Invitrogen Protoarray v4.0)) MASRGKTETSKLKQNLEEQLDRLMQQLQDLEECREELDTDEYEETKKETLEQLSEFNDSLKKIMSGNMTLVDELSGMQLAIQAAISQAFKTPEVIRLFAKKQPGQLRTRLAEMDRDLMVGKLERDLYTQQKVEILTALRKLGEKLTADDEAFLSANAGAILSQFEKVSTDLGSGDKILALASFEVEKTKK | binds |
| Pleckstrin homology domain containing, family J member 1 (natural protein, human, UniProt Q9NW61 1-149, looked up, Pleckstrin homology domain containing, family J member 1, human; also called PLEKHJ1; source: insect cell/baculovirus, purified, spotted (Invitrogen Protoarray v4.0)) MRYNEKELQALSRQPAEMAAELGMRGPKKGSVLKRRLVKLVVNFLFYFRTDEAEPVGALLLERCRVVREEPGTFSISFIEDPERKYHFECSSEEQCQEWMEALRRASYEFMRRSLIFYRNEIRKVTGKDPLEQFGISEEARFQLSGLQA | binds |
| Acyl-Coenzyme A binding domain containing 6 (natural protein, human, UniProt Q9BR61 1-282, looked up, also called ACBD6; source: insect cell/baculovirus, purified, spotted (Invitrogen Protoarray v4.0)) MASSFLPAGAITGDSGGELSSGDDSGEVEFPHSPEIEETSCLAELFEKAAAHLQGLIQVASREQLLYLYARYKQVKVGNCNTPKPSFFDFEGKQKWEAWKALGDSSPSQAMQEYIAVVKKLDPGWNPQIPEKKGKEANTGFGGPVISSLYHEETIREEDKNIFDYCRENNIDHITKAIKSKNVDVNVKDEEGRALLHWACDRGHKELVTVLLQHRADINCQDNEGQTALHYASACEFLDIVELLLQSGADPTLRDQDGCLPEEVTGCKTVSLVLQRHTTGKA | binds |
| CUE domain containing 1 (natural protein, human, UniProt Q9NWM3 1-386, looked up, CUE domain containing 1, human; also called CUEDC1; source: insect cell/baculovirus, purified, spotted (Invitrogen Protoarray v4.0)) MTSLFRRSSSGSGGGGTAGARGGGGGTAAPQELNNSRPARQVRRLEFNQAMDDFKTMFPNMDYDIIECVLRANSGAVDATIDQLLQMNLEGGGSSGGVYEDSSDSEDSIPPEILERTLEPDSSDEEPPPVYSPPAYHMHVFDRPYPLAPPTPPPRIDALGSGAPTSQRRYRNWNPPLLGNLPDDFLRILPQQLDSIQGNAGGPKPGSGEGCPPAMAGPGPGDQESRWKQYLEDERIALFLQNEEFMKELQRNRDFLLALERDRLKYESQKSKSSSVAVGNDFGFSSPVPGTGDANPAVSEDALFRDKLKHMGKSTRRKLFELARAFSEKTKMRKSKRKHLLKHQSLGAAASTANLLDDVEGHACDEDFRGRRQEAPKVEEGLREGQ | binds |
| NOTCH-regulated ankyrin repeat protein (natural protein, human, UniProt Q7Z6K4 1-114, looked up, NOTCH-regulated ankyrin repeat protein, human; also called NRARP; source: insect cell/baculovirus, purified, spotted (Invitrogen Protoarray v4.0)) MSQAELSTCSAPQTQRIFQEAVRKGNTQELQSLLQNMTNCEFNVNSFGPEGQTALHQSVIDGNLELVKLLVKFGADIRLANRDGWSALHIAAFGGHQDIVLYLITKAKYAASGR | binds |
| PIM2 (printed gene product: Pediatric index of mortality 2) (natural protein, source: insect cell/baculovirus, purified, spotted (Invitrogen Protoarray v4.0)) not shown | binds |
| G protein, γ-transducing activity polypeptide 1 (natural protein, human, UniProt P63211 1-74, looked up, G protein, γ-transducing activity polypeptide 1, human; also called GNGT1; source: insect cell/baculovirus, purified, spotted (Invitrogen Protoarray v4.0)) MPVINIEDLTEKDKLKMEVDQLKKEVTLERMLVSKCCEEVRDYVEERSGEDPLVKGIPEDKNPFKELKGGCVIS | binds |
| AMME chromosomal region gene 1-like (natural protein, human, UniProt Q6DCA0 1-310, looked up, AMME chromosomal region gene 1-like, human; also called AMMECR1L; source: insect cell/baculovirus, purified, spotted (Invitrogen Protoarray v4.0)) MGKRRCVPPLEPKLAAGCCGVKKPKLSGSGTHSHGNQSTTVPGSSSGPLQNHQHVDSSSGRENVSDLTLGPGNSPITRMNPASGALSPLPRPNGTANTTKNLVVTAEMCCYCFDVLYCHLYGFPQPRLPRFTNDPYPLFVTWKTGRDKRLRGCIGTFSAMNLHSGLREYTLTSALKDSRFPPLTREELPKLFCSVSLLTNFEDASDYLDWEVGVHGIRIEFINEKGVKRTATYLPEVAKEQDWDQIQTIDSLLRKGGFKAPITSEFRKTIKLTRYRSEKVTISYAEYIASRQHCFQNGTLHAPPLYNHYS | binds |
| Leupaxin (natural protein, human, UniProt O60711-1 1-386, looked up, Leupaxin, human; also called LPXN; source: insect cell/baculovirus, purified, spotted (Invitrogen Protoarray v4.0)) MEELDALLEELERSTLQDSDEYSNPAPLPLDQHSRKETNLDETSEILSIQDNTSPLPAQLVYTTNIQELNVYSEAQEPKESPPPSKTSAAAQLDELMAHLTEMQAKVAVRADAGKKHLPDKQDHKASLDSMLGGLEQELQDLGIATVPKGHCASCQKPIAGKVIHALGQSWHPEHFVCTHCKEEIGSSPFFERSGLAYCPNDYHQLFSPRCAYCAAPILDKVLTAMNQTWHPEHFFCSHCGEVFGAEGFHEKDKKPYCRKDFLAMFSPKCGGCNRPVLENYLSAMDTVWHPECFVCGDCFTSFSTGSFFELDGRPFCELHYHHRRGTLCHGCGQPITGRCISAMGYKFHPEHFVCAFCLTQLSKGIFREQNDKTYCQPCFNKLFPL | binds |
| Arginine vasopressin-induced 1 (natural protein, human, UniProt Q5T686 1-147, looked up, Arginine vasopressin-induced 1, human; also called AVPI1; source: insect cell/baculovirus, purified, spotted (Invitrogen Protoarray v4.0)) MGTPASVVSEPPPWQAPIEARGRKQASANIFQDAELLQIQALFQRSGDQLAEERAQIIWECAGDHRVAEALKRLRRKRPPRQKPLGHSLHHCSRLRILEPHSALANPQSATETASSEQYLHSRKKSARIRRNWRKSGPTSYLHQIRH | binds |
